Data as given in US20180155425A1 (ZONHON BIOPHARMA INSTITUTE, published 2018).

What was measured:
[1] = target: T1, human CD26 on the surfaces of tumor cells (human, UniProt P27487 1-766); assay: flow cytometry on 786-0 cells, anti-His-tag-Alexa Fluor 488 detection
T1 construct: whole, on cells; The background section says CD26 often exists as a homodimer of 766-residue monomers; also called CD26 molecules on the surfaces of the tumor cells
Description: (§1) Test method: 786-0 and NCI-H2452 cells in the logarithmic growth phase were trypsinized. The cells were harvested by centrifugation at 1000 rpm for 5 min, and washed twice with PBS buffer. One portion of 1.0×10⁶ cells was re-suspended in 250 μL PBS butler, and BsAb1, BsAb2, BsAb3, and BsAb4 were respectively added to give a final concentration of […] and incubated at room temperature for 1 hr. After incubation, the cells were washed twice with PBS buffer, and then 250 μL of Anti--His-tag-Alexa Fluor 488 antibody that was 1:2000 diluted was added and incubated at room temperature for 1 hr. After incubation, the cells were washed thrice with PBS, re-suspended in 300 μL PBS buffer, and detected by flow cytometer.

[2] = target: T1, human CD26 on the surfaces of tumor …; assay: flow cytometry on PC-3 cells, anti-His-tag-Alexa Fluor 488 detection
[3] = target: T1, human CD26 on the surfaces of tumor …; assay: cell-based or functional assay
[4] = target: T1, human CD26 on the surfaces of tumor …; assay: flow cytometry on Caki-1 cells, anti-His-tag-Alexa Fluor 488 detection
[5] = target: T2, human CD3 on the surfaces of Jurkat cells / T cells (human, UniProt P07766 23-207; P09693 23-182; P04234 22-171); assay: flow cytometry on Jurkat (CD3+) cells, antibody at 10 µg/mL, anti-His-tag-Alexa Fluor 488 detection
T2 construct: whole, on cells; CD3 is endogenous on Jurkat cells and on enriched human T cells; also called CD3 molecules on the surfaces of Jurkat cells
Description: Test method: Jurkat cells in the logarithmic growth phase were harvested by centrifugation at 1000 rpm for 5 min, and washed twice with PBS buffer. One portion of 1.0×10⁶ cells was re-suspended in 250 μL PBS buffer, and BsAb1, BsAb2, BsAb3, and BsAb4 were respectively added to give a final concentration of 10 μg/mL and incubated at room temperature for 1 hour. After incubation, the cells were washed twice with PBS, and then 250 μL of Anti-His-tag-Alexa Fluor 488 antibody that was 1:2000 diluted was added and incubated at room temperature for 1 hour. After incubation, the cells were washed thrice with PBS buffer, re-suspended in 300 μL PBS, and detected by flow cytometer.

[6] = target: T1, human CD26 on the surfaces of tumor …; assay: flow cytometry on COLO205 cells, anti-His-tag-Alexa Fluor 488 detection
CD26 protein = target: T3, CD26 protein (UniProt P27487 39-766, limits assumed); assay: BLI, Fortebio Qke, AR2G amine reactive biosensor
T3 construct: Soluble CD26 protein in the biolayer interferometry assay on AR2G sensors
Text: Test method: The affinities of the bispecific antibodies to CD26 protein were detected by using the Molecular Interaction Instrument Fortebio Qke, following the instruction of operation of immersive readable Amine Reactive 2nd Generation Biosensor (Fortebio, AR2G).

[7] = target: T1, human CD26 on the surfaces of tumor …; assay: flow cytometry on NCI-H2452 cells, anti-His-tag-Alexa Fluor 488 detection
Description: as §1

[8] = target: T1, human CD26 on the surfaces of tumor …; assay: cell-based or functional assay; remark: listed apart in the source
[9] = target: T1, human CD26 on the surfaces of tumor …; assay: cell-based or functional assay; remark: listed apart in the source
[10] = target: T1, human CD26 on the surfaces of tumor …; assay: cell-based or functional assay; remark: listed apart in the source

B1: ZHB BsAb-1 (bispecific antibody)
chain: EVQLVESGAGVKQPGGTLRLTCTASGFSLTTYGVHWVRQAPGKGLEWVGVIWGDGRTDYDAAFMSRVTISKDTSKSTVYLQMNSLRAEDTAVYYCMRNRHDWFDYWGQGTTVTVSSGGGGSGGGGSGGGGSDILLTQSPSSLSATPGERATITCRASQGIRNNLNWYQQKPGQAPRLLIYYSSNLQSGVPSRFSGSGSGTDFTLTISRLQPEDVAAYYCQQSIKLPFTFGSGTKVEIKSGGGGSDVQLVQSGAEVKKPGASVKVSCKASGYTFTRYTMHWVRQAPGQGLEWIGYINPSRGYTNYADSVKGRFTITTDKSTSTAYMELSSLRSEDTATYYCARYYDDHYCLDYWGQGTTVTVSSGEGTSTGSGGSGGSGGADDIVLTQSPATLSLSPGERATLSCRASQSVSYMNWYQQKPGKAPKRWIYDTSKVASGVPARFSGSGSGTDYSLTINSLEAEDAATYYCQQWSSNPLTFGGGTKVEIK
notes: detection on cells used an anti-His-tag antibody; also called anti-CD26×anti-CD3 bispecific antibody
Binding rate [1]: 41.1% | Binding rate [2]: 1.2% | Lysis (%) of 786-0 cells by PBMC, antibody at 10 ng/mL [3]: 15.9% | Binding rate [4]: 1.1% | binding rate to Jurkat cells [5]: 0.1% | Binding rate [6]: 0.1% | Kd (CD26 protein): 9.29 nM | Binding rate [7]: 1.1% | Lysis rate (%) of COLO205 cells by PBMC, antibody at 10 ng/mL [8]: 1.7% | Lysis rate (%) of Caki-1 cells by PBMC, antibody at 10 ng/mL [8]: 0.3% | Lysis rate (%) of NCI-H2452 cells by PBMC, antibody at 10 ng/mL [8]: 0.2% | Lysis rate (%) of PC-3 cells by PBMC, antibody at 10 ng/mL [8]: 45.4%

B2: ZHB BsAb-2 (bispecific antibody)
chain: DILLTQSPSSLSATPGERATITCRASQGIRNNLNWYQQKPGQAPRLLIYYSSNLQSGVPSRFSGSGSGTDFTLTISRLQPEDVAAYYCQQSIKLPFTFGSGTKVEIKGGGGSGGGGSGGGGSEVQLVESGAGVKQPGGTLRLTCTASGFSLTTYGVHWVRQAPGKGLEWVGVIWGDGRTDYDAAFMSRVTISKDTSKSTVYLQMNSLRAEDTAVYYCMRNRHDWFDYWGQGTTVTVSSGGGGSDVQLVQSGAEVKKPGASVKVSCKASGYTFTRYTMHWVRQAPGQGLEWIGYINPSRGYTNYADSVKGRFTITTDKSTSTAYMELSSLRSEDTATYYCARYYDDHYCLDYWGQGTTVTVSSGEGTSTGSGGSGGSGGADDIVLTQSPATLSLSPGERATLSCRASQSVSYMNWYQQKPGKAPKRWIYDTSKVASGVPARFSGSGSGTDYSLTINSLEAEDAATYYCQQWSSNPLTFGGGTKVEIK
notes: Single-chain tandem scFv; detection on cells used an anti-His-tag antibody; also called anti-CD26×anti-CD3 bispecific antibody
Binding rate [1]: 99.6% | IC50 of T cell-mediated killing of 786-0 cells [9]: 1.39 ng/mL | Lysis rate (%) of 786-0 cells by T cells, antibody at 10^2 pg/mL [10]: 21.8% | Lysis rate (%) of 786-0 cells by T cells, antibody at 10^3 pg/mL [10]: 59.2% | Lysis rate (%) of 786-0 cells by T cells, antibody at 10^4 pg/mL [10]: 69.6% | Lysis rate (%) of 786-0 cells by T cells, antibody at 10^5 pg/mL [10]: 76.3% | Binding rate [2]: 42.8% | Lysis (%) of 786-0 cells by PBMC, antibody at 10 ng/mL [3]: 27.4% | Binding rate [4]: 49.9% | binding rate to Jurkat cells [5]: 92% | Binding rate [6]: 14% | Kd (CD26 protein): 3.44 nM | Binding rate [7]: 71.8% | Lysis rate (%) of COLO205 cells by PBMC, antibody at 10 ng/mL [8]: 17% | Lysis rate (%) of Caki-1 cells by PBMC, antibody at 10 ng/mL [8]: 26.5% | Lysis rate (%) of NCI-H2452 cells by PBMC, antibody at 10 ng/mL [8]: 32.3% | Lysis rate (%) of PC-3 cells by PBMC, antibody at 10 ng/mL [8]: 39.6%

B3: ZHB BsAb-3 (bispecific antibody)
chain: DVQLVQSGAEVKKPGASVKVSCKASGYTFTRYTMHWVRQAPGQGLEWIGYINPSRGYTNYADSVKGRFTITTDKSTSTAYMELSSLRSEDTATYYCARYYDDHYCLDYWGQGTTVTVSSGEGTSTGSGGSGGSGGADDIVLTQSPATLSLSPGERATLSCRASQSVSYMNWYQQKPGKAPKRWIYDTSKVASGVPARFSGSGSGTDYSLTINSLEAEDAATYYCQQWSSNPLTFGGGTKVEIKSGGGGSEVQLVESGAGVKQPGGTLRLTCTASGFSLTTYGVHWVRQAPGKGLEWVGVIWGDGRTDYDAAFMSRVTISKDTSKSTVYLQMNSLRAEDTAVYYCMRNRHDWFDYWGQGTTVTVSSGGGGSGGGGSGGGGSDILLTQSPSSLSATPGERATITCRASQGIRNNLNWYQQKPGQAPRLLIYYSSNLQSGVPSRFSGSGSGTDFTLTISRLQPEDVAAYYCQQSIKLPFTFGSGTKVEIK
notes: as for B2
Binding rate [1]: 9.4% | Binding rate [2]: 0.1% | Lysis (%) of 786-0 cells by PBMC, antibody at 10 ng/mL [3]: 4.3% | Binding rate [4]: 1.2% | binding rate to Jurkat cells [5]: 0.2% | Binding rate [6]: 0.4% | Kd (CD26 protein): 10 nM | Binding rate [7]: 0.7% | Lysis rate (%) of COLO205 cells by PBMC, antibody at 10 ng/mL [8]: 5.3% | Lysis rate (%) of Caki-1 cells by PBMC, antibody at 10 ng/mL [8]: 0.8% | Lysis rate (%) of NCI-H2452 cells by PBMC, antibody at 10 ng/mL [8]: 0.7% | Lysis rate (%) of PC-3 cells by PBMC, antibody at 10 ng/mL [8]: 1.7%

B4: ZHB BsAb-4 (bispecific antibody)
chain: DVQLVQSGAEVKKPGASVKVSCKASGYTFTRYTMHWVRQAPGQGLEWIGYINPSRGYTNYADSVKGRFTITTDKSTSTAYMELSSLRSEDTATYYCARYYDDHYCLDYWGQGTTVTVSSGEGTSTGSGGSGGSGGADDIVLTQSPATLSLSPGERATLSCRASQSVSYMNWYQQKPGKAPKRWIYDTSKVASGVPARFSGSGSGTDYSLTINSLEAEDAATYYCQQWSSNPLTFGGGTKVEIKSGGGGSDILLTQSPSSLSATPGERATITCRASQGIRNNLNWYQQKPGQAPRLLIYYSSNLQSGVPSRFSGSGSGTDFTLTISRLQPEDVAAYYCQQSIKLPFTFGSGTKVEIKGGGGSGGGGSGGGGSEVQLVESGAGVKQPGGTLRLTCTASGFSLTTYGVHWVRQAPGKGLEWVGVIWGDGRTDYDAAFMSRVTISKDTSKSTVYLQMNSLRAEDTAVYYCMRNRHDWFDYWGQGTTVTVSS
notes: as for B2
Binding rate [1]: 98% | IC50 of T cell-mediated killing of 786-0 cells [9]: 3.1 ng/mL | Lysis rate (%) of 786-0 cells by T cells, antibody at 10^2 pg/mL [10]: 24.3% | Lysis rate (%) of 786-0 cells by T cells, antibody at 10^3 pg/mL [10]: 38.8% | Lysis rate (%) of 786-0 cells by T cells, antibody at 10^4 pg/mL [10]: 64.8% | Lysis rate (%) of 786-0 cells by T cells, antibody at 10^5 pg/mL [10]: 75.4% | Binding rate [2]: 62.9% | Lysis (%) of 786-0 cells by PBMC, antibody at 10 ng/mL [3]: 25.5% | Binding rate [4]: 1.1% | binding rate to Jurkat cells [5]: 56.5% | Binding rate [6]: 0.2% | Kd (CD26 protein): 1.97 nM | Binding rate [7]: 1.4% | Lysis rate (%) of COLO205 cells by PBMC, antibody at 10 ng/mL [8]: 5.4% | Lysis rate (%) of Caki-1 cells by PBMC, antibody at 10 ng/mL [8]: 0.9% | Lysis rate (%) of NCI-H2452 cells by PBMC, antibody at 10 ng/mL [8]: 0.5% | Lysis rate (%) of PC-3 cells by PBMC, antibody at 10 ng/mL [8]: 53.1%

B5: anti-CD26-scFv (scFv)
scFv: EVQLVESGAGVKQPGGTLRLTCTASGFSLTTYGVHWVRQAPGKGLEWVGVIWGDGRTDYDAAFMSRVTISKDTSKSTVYLQMNSLRAEDTAVYYCMRNRHDWFDYWGQGTTVTVSSGGGGSGGGGSGGGGSDILLTQSPSSLSATPGERATITCRASQGIRNNLNWYQQKPGQAPRLLIYYSSNLQSGVPSRFSGSGSGTDFTLTISRLQPEDVAAYYCQQSIKLPFTFGSGTKVEIKHHHHHH
notes: Expressed in Pichia pastoris; also called anti-CD26 single-chain antibody; parent single-chain antibody
Lysis rate (%) of 786-0 cells by T cells, antibody at 10^2 pg/mL [10]: 10.8% | Lysis rate (%) of 786-0 cells by T cells, antibody at 10^3 pg/mL [10]: 9.6% | Lysis rate (%) of 786-0 cells by T cells, antibody at 10^4 pg/mL [10]: 10.9% | Lysis rate (%) of 786-0 cells by T cells, antibody at 10^5 pg/mL [10]: 7.5% | Lysis (%) of 786-0 cells by PBMC, antibody at 10 ng/mL [3]: 4.1% | Kd (CD26 protein): 1 nM
